Among the data in patent publication US20100256338A1 (Hoffmann-La Roche, published 2010) are Kd values, retold here.

Experiment [1] addresses T1, IGF-1R (soluble analyte in SPR) (human, UniProt P08069 31-932, limits assumed).
T1 construct: also called human IGF1-Receptor
Kind of experiment: SPR (Biacore T100), antibody captured by anti-human IgG, IGF-1R as analyte, 25 C. In general terms: In SPR one partner is held on a chip, and binding of the other changes the refractive index at the surface.

In the next experiment the target is T2, EGFR-ECD (human, UniProt P00533 25-645).
T2 construct: extracellular domain; also called human EGF-Receptor
As to the kind of experiment: SPR (Biacore T100), antibody captured by anti-human IgG, EGFR-ECD as analyte, 25 C.

B1: scFab-XGFR2_2720 (bispecific antibody)
chain 1: not shown
chain 2: DIQMTQSPSSLSASVGDRVTITCRASQGINNYLNWYQQKPGKAPKRLIYNTNNLQTGVPSRFSGSGSGTEFTLTISSLQPEDFATYYCLQHNSFPTFGQGTKLEIKRTVAAPSVFIFPPSDEQLKSGTASVVCLLNNFYPREAKVQWKVDNALQSGNSQESVTEQDSKDSTYSLSSTLTLSKADYEKHKVYACEVTHQGLSSPVTKSFNRGEC
Broadly, the Kd is the free concentration of one partner at which half of the binding sites on the other are occupied at equilibrium, for simple one-to-one binding. Regarding B1, the Kd worked out at 11 nM in experiment [1] and 0.5 nM with EGFR-ECD.

B2: humanized <EGFR>ICR62 (antibody, V domains shown)
VH: QVQLVQSGAEVKKPGSSVKVSCKASGFTFTDYKIHWVRQAPGQGLEWMGYFNPNSGYSTYAQKFQGRVTITADKSTSTAYMELSSLRSEDTAVYYCARLSPGGYYVMDAWGQGTTVTVSS
VL: DIQMTQSPSSLSASVGDRVTITCRASQGINNYLNWYQQKPGKAPKRLIYNTNNLQTGVPSRFSGSGSGTEFTLTISSLQPEDFATYYCLQHNSFPTFGQGTKLEIKR
notes: Humanized rat anti-EGFR antibody, 'wildtype' IgG parent; also called humanized rat anti-EGFR antibody <EGFR>ICR62
For B2, the Kd with EGFR-ECD came to 0.5 nM.
